Here are results for seven proteins from FireProtDB.

For the data set the following is noted: whole UniProt chain shown.
Setting [1] is: Staphylococcus aureus, pH 7, 30 °C, GdnHCl, CD, Sodium phosphate/Sodium sulfate 1.0 mM/10 mM/, reversible: yes.
Where [2] appears, read: Staphylococcus aureus, pH 7, Thermal, DSC, phosphate 100 mM, reversible: yes(75%).
The mark [3] stands for this setting: Staphylococcus aureus, pH 7.5, 25 °C, Urea, CD, Tris-HCl 0.1 M, KCl 0.2 M, reversible: yes.
Where [4] appears, read: Salmonella phage P22, pH 7.3, Thermal, CD, Potassium phosphate 10 mM, KCl 100 mM, reversible: yes.
The mark [5] stands for this setting: Salmonella phage P22, pH 7.5, 20 °C, GdnHCl, CD, Tris-HCl 50 mM, KCl 100 mM, reversible: yes.
Where [6] appears, read: Salmonella phage P22, pH 7.5, 20 °C, GdnHCl, Fluorescence, Tris-HCl 50 mM, KCl 100 M, reversible: yes.
Where [7] appears, read: Salmonella phage P22, pH 7.5, 20 °C, Urea, Fluorescence, Tris-HCl 50 mM, KCl 100 mM, reversible: yes.
[8] abbreviates: Salmonella phage P22, pH 7.5, 25 °C, GdnHCl, CD, Tris-HCl 50 mM, KCl 250 mM.
Setting [9] is: Salmonella phage P22, pH 7.5, 25 °C, GdnHCl, Fluorescence, Tris-HCl 50 mM, KCl 100 M, reversible: yes.
Setting [10] is: Salmonella phage P22, pH 7.5, 25 °C, Urea, CD, Tris 50 mM, KCl 50 mM.
The mark [11] stands for this setting: Salmonella phage P22, pH 7.5, 25 °C, Urea, CD, Tris-Cl 10 mM, KCl 250 mM.
Where [12] appears, read: Salmonella phage P22, pH 7.5, 25 °C, Urea, CD, Tris-HCl 50 mM, KCl 250 mM, reversible: yes.
Setting [13] is: Salmonella phage P22, pH 7.5, Thermal, CD, Tris-HCl 50 mM, KCl 250 mM, reversible: yes.
The mark [14] stands for this setting: Salmonella phage P22, pH 7.5, Thermal, CD, Tris-HCl 50 mM, KCl 100 M, reversible: yes.
Where [15] appears, read: Staphylococcus aureus (strain NCTC 8325 / PS 47), pH 8.5, Urea, fluorescence, Tris-Cl, transition: 2, reversible: yes.
Where [16] appears, read: Saccharolobus solfataricus (strain ATCC 35092 / DSM 1617 / JCM 11322 / P2), pH 5.5, Thermal, CD, Acetate 50 mM.

Values joined by “and” are separate entries in the source; they are usually repeats but may differ in a detail not shown here. Equal values may be shown once.

For orientation: Tm means the temperature at which the thermal transition is half complete.

B1: Scaffolding protein wild type, P26748 (protein)
chain: MEPTTEIQATEDLTLSGDHAAASADSLVVDNANDNAGQEEGFEIVLKDDETAPKQDPAKNAEFARRRIERKRQRELEQQMEAVKRGELPESLRVNPDLPPQPDINAYLSEEGLAKYDYDNSRALAAFNAANTEWLMKAQDARSNAVAEQGRKTQEFTQQSAQYVEAARKHYDAAEKLNIPDYQEKEDAFMQLVPPAVGADIMRLFPEKSAALMYHLGANPEKARQLLAMDGQSALIELTRLSERLTLKPRGKQISSAPPADQPITGDVSAANKDAIRKQMDAAASKGDVETYRKLKAKLKGIR
With B1, where the note is “Salmonella phage P22, pH 7.6, Thermal, Fluorescence, phosphate 0.3 micro M, NaCl 0.3 micro M”, the Tm stood at 58 °C.

B2: Methylated-DNA--protein-cysteine methyltransferase wild type, Q97VW7 (protein)
chain: MLVYGLYKSPLGYITVAKDDKGFIMLDFCDCVEGNSRDDSSFTEFFHKLDLYFEGKPINLREPINLKTYPFRLSVFKEVMKIPWGKVMTYKQIADSLGTSPRAVGMALSKNPILLIIPCHRVIAENGIGGYSRGVKLKRALLELEGVKIPE
Turning to B2, the Tm (Saccharolobus solfataricus (strain ATCC 35092 / DSM 1617 / JCM 11322 / P2), pH 7.4, Thermal, DSF, PBS, transition: 2) worked out at 82.9 °C.

B3: wild type, Q9EYL5 (protein)
chain: MTKKLLTLFIVSMLILTACGKKESATTSSKNGKPLVVVYGDYKCPYCKELDEKVMPKLRKNYIDNHKVEYQFVNLAFLGKDSIVGSRASHAVLMYAPKSFLDFQKQLFAAQQDENKEWLTKELLDKHIKQLHLDKETENKIIKDYKTKDSKSWKAAEKDKKIAKDNHIKTTPTAFINGEKVEDPYDYESYEKLLKDKIK
Consider B3, for which the “denaturant midpoint (higher = more stable)” value (“denaturant midpoint” for short) runs as follows: under setting [1], 1.66 M; under setting [3], 4.2 M and 5.6 M and 5.62 M. In addition, the unfolding free energy by setting is: under setting [1], 8 kcal/mol; (Staphylococcus aureus, pH 7, 30 °C, Thermal, DSC, phosphate 100 mM, reversible: yes(75%)) 11.6 kcal/mol and 15.8 kcal/mol; (Staphylococcus aureus, pH 7, 30 °C, Thermal, Fluorescence, Sodium phosphate 100 mM, EDTA 1 mM, reversible: yes) 11.1 kcal/mol; (Staphylococcus aureus, pH 7, 30 °C, Thermal, Fluorescence, Sodium phosphate 100 mM, reversible: yes) 7 kcal/mol; (Staphylococcus aureus, pH 7, 30 °C, Thermal, Fluorescence, phosphate 100 mM, reversible: yes(75%)) 8.29 kcal/mol and 12.6 kcal/mol; under setting [3], 8.7 kcal/mol and 12.3 kcal/mol and 12.9 kcal/mol. The Tm under setting [2] came to 68.4 °C. Further, under setting [2], the “heat capacity change of unfolding” value stood at 2.22 kcal/mol/K. Besides, the “unfolding enthalpy (calorimetric)” value under setting [2] worked out at 148 kcal/mol. Besides, the “unfolding enthalpy (van 't Hoff)” value under setting [2] turned out to be 137 kcal/mol.

B4: Transcriptional repressor arc wild type, P03050 (protein)
chain: MKGMSKMPQFNLRWPREVLDLVRKVAEENGRSVNSEIYQRVMESFKKEGRIGA
Consider B4, for which the Tm by setting is: under setting [4], 54 °C; (Salmonella phage P22, pH 7.5, 25 °C, Thermal, CD, Tris-HCl 50 mM, KCl 50 mM) 56.8 °C; (Salmonella phage P22, pH 7.5, Thermal, CD, Potassium phosphate 10 mM, KCl 100 mM) 54 °C; (Salmonella phage P22, pH 7.5, Thermal, CD, Tris-HCl 50 mM, KCl 50 mM) 56.8 °C; under setting [13], 58.3 °C and 59 °C and 57.9 °C; under setting [14], 53.4 °C. For the same protein, the “heat capacity change of unfolding” value under setting [4] stood at 1.6 kcal/mol/K. For the same protein, the “unfolding enthalpy (van 't Hoff)” value is 71 kcal/mol under setting [4]; 62.3 kcal/mol and 58.5 kcal/mol under setting [13]; 55.2 kcal/mol under setting [14]. Moreover, the unfolding free energy is, setting by setting: under setting [4], 7.3 kcal/mol; under setting [5], 11.1 kcal/mol; under setting [6], 9.97 kcal/mol; under setting [7], 9.58 kcal/mol; under setting [8], 10.3 kcal/mol; under setting [9], 10.1 kcal/mol. The unfolding free energy was 11 kcal/mol (Salmonella phage P22, pH 7.5, 25 °C, Thermal, CD, Tris-HCl 50 mM, KCl 250 mM); 10.4 kcal/mol under setting [10]; 9.92 kcal/mol under setting [11]; 6.3 kcal/mol and 10.9 kcal/mol and 11 kcal/mol under setting [12]. For the same protein, the denaturant m value reads like this: under setting [5], 3.27 kcal/mol/M; under setting [6], 2.98 kcal/mol/M; under setting [7], 1.37 kcal/mol/M; under setting [8], 3 kcal/mol/M; under setting [9], 3.03 kcal/mol/M; under setting [10], 1.5 kcal/mol/M. In addition, the denaturant m value runs as follows: under setting [11], 1.21 kcal/mol/M; under setting [12], 1.36 kcal/mol/M and 1.57 kcal/mol/M and 1.64 kcal/mol/M. Further, the “denaturant midpoint” value under setting [7] worked out at 6.7 M, the “denaturant midpoint” value under setting [8] worked out at 1.1 M and the “denaturant midpoint” value under setting [12] turned out to be 4.65 M.

B5: Putative peptidyl-prolyl cis-trans isomerase wild type, Q2FZU9 (protein)
chain: MANYPQLNKEVQQGEIKVVMHTNKGDMTFKLFPNIAPKTVENFVTHAKNGYYDGITFHRVINDFMIQGGDPTATGMGGESIYGGAFEDEFSLNAFNLYGALSMANSGPNTNGSQFFIVQMKEVPQNMLSQLADGGWPQPIVDAYGEKGGTPWLDQKHTVFGQIIDGETTLEDIANTKVGPQDKPLHDVVIESIDVEE
Turning to B5, under setting [15], the denaturant m value was 0.85 kcal/mol/M and 1.18 kcal/mol/M; the “denaturant midpoint” value is 3.19 M and 1.83 M; the unfolding free energy was 2.66 kcal/mol and 2.17 kcal/mol.

B6: Acylphosphatase wild type, Q97ZL0 (protein)
chain: MKKWSDTEVFEMLKRMYARVYGLVQGVGFRKFVQIHAIRLGIKGYAKNLPDGSVEVVAEGYEEALSKLLERIKQGPPAAEVEKVDYSFSEYKGEFEDFETY
As to B6, for the setting “Saccharolobus solfataricus (strain ATCC 35092 / DSM 1617 / JCM 11322 / P2), pH 5.5, 28 °C, GdnHCl, CD, Acetate 50 mM”, the unfolding free energy is 11.6 kcal/mol. In addition, the unfolding free energy (Saccharolobus solfataricus (strain ATCC 35092 / DSM 1617 / JCM 11322 / P2), pH 5.5, 81 °C, GdnHCl, CD, Acetate 50 mM) is 4.94 kcal/mol. Moreover, under setting [16], the Tm is 101 °C, the “heat capacity change of unfolding” value was 1.15 kcal/mol/K and the “unfolding enthalpy (van 't Hoff)” value turned out to be 105 kcal/mol.

B7: Cytidine deaminase wild type, Q9S3M0 (protein)
chain: MDVEKLIAESKKAREQAYVPYSKFPVGAALLAEDGTIYHGCNIENSAYSMTNCAERTAFFKAVSDGVRSFKALAVVADTEGPVSPCGACRQVIAEFCNGSMPVYLTNLKGDIEETTVAKLLPGAFSKEDLSYAAEQ
For B7, the unfolding free energy (Sporosarcina psychrophila, pH 7, 25 °C, GdnHCl, CD, potassium phosphate 20 mM, reversible: no) turned out to be 3 kcal/mol.
